Values quoted from earlier work as cited in PMC3601010, “The complete N-terminal extension of heparin cofactor II is required for maximal effectiveness as a thrombin exosite 1 ligand” (BMC Biochemistry, 2013).

Target: T1, thrombin (Homo sapiens, UniProt P00734)
T1 construct: purchased Enzyme Research, South Bend, IN; host or cells: HCII 1-75 probe made in house in E. coli TOP10
Settings: heparin, heparan sulfate, or dermatan sulfate; ref [7]-[11]
From the text: Heparin cofactor II (HCII) is a 66 kDa plasma protein and member of the serpin superfamily of protease inhibitors (reviewed in [3]). It regulates the key coagulation protease thrombin by trapping it in a covalently-linked denaturation-resistant complex. Thrombin-complexed HCII is cleaved at its reactive center peptide bond, while thrombin in the inhibitory complex, by analogy to enzymes in other serpin-enzyme complexes, is conformationally inactivated by active site distortions that render it incapable of completing the catalytic cycle of a proteolytic enzyme. The r ...

B1: HCII: 66 kDa plasma protein and member of the serpin superfamily of protease inhibitors (protein, UniProt P05546 20-499, looked up)
Heparin cofactor 2: GSKGPLDQLEKGGETAQSADPQWEQLNNKNLSMPLLPADFHKENTVTNDWIPEGEEDDDYLDLEKIFSEDDDYIDIVDSLSVSPTDSDVSAGNILQLFHGKSRIQRLNILNAKFAFNLYRVLKDQVNTFDNIFIAPVGISTAMGMISLGLKGETHEQVHSILHFKDFVNASSKYEITTIHNLFRKLTHRLFRRNFGYTLRSVNDLYIQKQFPILLDFKTKVREYYFAEAQIADFSDPAFISKTNNHIMKLTKGLIKDALENIDPATQMMILNCIYFKGSWVNKFPVEMTHNHNFRLNEREVVKVSMMQTKGNFLAANDQELDCDILQLEYVGGISMLIVVPHKMSGMKTLEAQLTPRVVERWQKSMTNRTREVLLPKFKLEKNYNLVESLKLMGIRMLFDKNGNMAGISDQRIAIDLFKHQGTITVNEEGTQATTVTTVGFMPLSTQVRFTVDRPFLFLIYEHRTSCLLFMGRVANPSRS
modifications: plasma-derived
In the case of B1, the “increase of thrombin inhibition rate by GAGs” value is listed as “three to four orders of magnitude”.
